No end group written: not given here.
B1: PD-L1Pep-2 (peptide)
peptide: CVRARTR
modifications: also: N-terminal FITC, biotin or Flamma-675 depending on assay
notes: Synthetic peptide CVRARTR from a T7 phage library; also called PBP
B2: PD-L1Pep-1 (peptide)
peptide: CLQKTPKQC
modifications: cysteine pairing not given here; also: N-terminal FITC, biotin or Flamma-675 depending on assay
notes: also called PBP

Target: T1, PD-L1 expressed on MDA-MB231 cells (human, UniProt Q9NZQ7 19-290)
T1 construct: whole, on cells; Endogenous protein of a human cell line; also called MDA-MB 231 cells expressing PD-L1
T1 sequence (Q9NZQ7 19-290): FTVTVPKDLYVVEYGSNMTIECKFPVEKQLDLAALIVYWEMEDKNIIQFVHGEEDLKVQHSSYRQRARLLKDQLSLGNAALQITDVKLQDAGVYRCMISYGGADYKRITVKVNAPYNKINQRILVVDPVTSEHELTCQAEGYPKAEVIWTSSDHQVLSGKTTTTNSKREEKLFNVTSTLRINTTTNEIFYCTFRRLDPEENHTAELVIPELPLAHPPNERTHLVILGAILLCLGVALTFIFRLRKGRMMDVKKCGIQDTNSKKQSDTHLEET
Assay: flow cytometry on MDA-MB231 cells after siRNA knockdown of PD-L1

Row | Binder | binding result
1 | B1 | binds
2 | B2 | binds
